Assays:
[1] = biological target: T1, 9°N-7 YAV C223S exo- 71 deletion (C-terminus 704) (Thermococcus sp. 9°N-7) (UniProt Q56366); details: crude enzyme; kobs relative to YAV, essentially inactive
T1 sequence: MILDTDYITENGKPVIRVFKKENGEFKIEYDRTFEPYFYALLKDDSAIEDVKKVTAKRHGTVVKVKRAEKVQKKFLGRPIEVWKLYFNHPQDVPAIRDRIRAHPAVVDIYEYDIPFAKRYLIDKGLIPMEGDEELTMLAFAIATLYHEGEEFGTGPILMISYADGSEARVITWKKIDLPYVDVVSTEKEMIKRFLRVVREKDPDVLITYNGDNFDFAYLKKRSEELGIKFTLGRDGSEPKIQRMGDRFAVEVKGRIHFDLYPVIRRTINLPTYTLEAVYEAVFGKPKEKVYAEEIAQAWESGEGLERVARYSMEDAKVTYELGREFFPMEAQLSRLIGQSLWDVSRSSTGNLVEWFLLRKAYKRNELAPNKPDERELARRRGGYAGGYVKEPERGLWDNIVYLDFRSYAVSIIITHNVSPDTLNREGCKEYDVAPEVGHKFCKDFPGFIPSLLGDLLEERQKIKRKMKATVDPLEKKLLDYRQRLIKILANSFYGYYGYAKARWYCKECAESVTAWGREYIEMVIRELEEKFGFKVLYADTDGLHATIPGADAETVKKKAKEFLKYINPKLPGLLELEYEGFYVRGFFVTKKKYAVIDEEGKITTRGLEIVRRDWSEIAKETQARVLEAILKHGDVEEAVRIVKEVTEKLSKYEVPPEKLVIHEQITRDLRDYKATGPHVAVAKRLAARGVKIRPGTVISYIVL

[2] = biological target: T2, 9°N-7 DNA polymerase YAV C223S exo- (clone 9) C223S,L408Y,Y409A,P410V (Thermococcus sp. 9°N-7) (UniProt Q56366); details: burst kobs, DNA:pol 5:1; biphasic, burst amplitude 19%
T2 sequence: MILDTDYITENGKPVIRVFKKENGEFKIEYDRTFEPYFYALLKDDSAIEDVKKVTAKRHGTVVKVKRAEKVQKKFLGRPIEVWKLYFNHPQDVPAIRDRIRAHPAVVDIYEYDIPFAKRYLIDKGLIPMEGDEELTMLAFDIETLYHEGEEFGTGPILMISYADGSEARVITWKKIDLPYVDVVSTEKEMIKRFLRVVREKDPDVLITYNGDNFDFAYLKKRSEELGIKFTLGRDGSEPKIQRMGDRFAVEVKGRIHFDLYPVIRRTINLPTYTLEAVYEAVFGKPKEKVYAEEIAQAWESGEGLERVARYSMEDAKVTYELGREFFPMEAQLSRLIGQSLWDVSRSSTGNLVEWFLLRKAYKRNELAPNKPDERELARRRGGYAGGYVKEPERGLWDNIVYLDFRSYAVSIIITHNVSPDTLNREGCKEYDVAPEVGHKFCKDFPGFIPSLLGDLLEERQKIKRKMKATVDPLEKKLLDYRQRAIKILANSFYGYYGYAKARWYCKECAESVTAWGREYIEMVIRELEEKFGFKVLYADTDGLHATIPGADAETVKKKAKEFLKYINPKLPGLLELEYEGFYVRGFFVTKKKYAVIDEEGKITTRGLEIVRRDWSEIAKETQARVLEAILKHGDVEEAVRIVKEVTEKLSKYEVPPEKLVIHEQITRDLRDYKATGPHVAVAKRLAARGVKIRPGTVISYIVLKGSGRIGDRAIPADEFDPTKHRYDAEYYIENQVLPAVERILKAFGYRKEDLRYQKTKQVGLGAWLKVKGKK

[3] = biological target: T3, 9°N-7 YAV C223S exo- K705A (Thermococcus sp. 9°N-7, UniProt Q56366 SEQ:1-775); details: burst kobs, DNA:pol 5:1; biphasic, burst amplitude ~28%
T3 chain: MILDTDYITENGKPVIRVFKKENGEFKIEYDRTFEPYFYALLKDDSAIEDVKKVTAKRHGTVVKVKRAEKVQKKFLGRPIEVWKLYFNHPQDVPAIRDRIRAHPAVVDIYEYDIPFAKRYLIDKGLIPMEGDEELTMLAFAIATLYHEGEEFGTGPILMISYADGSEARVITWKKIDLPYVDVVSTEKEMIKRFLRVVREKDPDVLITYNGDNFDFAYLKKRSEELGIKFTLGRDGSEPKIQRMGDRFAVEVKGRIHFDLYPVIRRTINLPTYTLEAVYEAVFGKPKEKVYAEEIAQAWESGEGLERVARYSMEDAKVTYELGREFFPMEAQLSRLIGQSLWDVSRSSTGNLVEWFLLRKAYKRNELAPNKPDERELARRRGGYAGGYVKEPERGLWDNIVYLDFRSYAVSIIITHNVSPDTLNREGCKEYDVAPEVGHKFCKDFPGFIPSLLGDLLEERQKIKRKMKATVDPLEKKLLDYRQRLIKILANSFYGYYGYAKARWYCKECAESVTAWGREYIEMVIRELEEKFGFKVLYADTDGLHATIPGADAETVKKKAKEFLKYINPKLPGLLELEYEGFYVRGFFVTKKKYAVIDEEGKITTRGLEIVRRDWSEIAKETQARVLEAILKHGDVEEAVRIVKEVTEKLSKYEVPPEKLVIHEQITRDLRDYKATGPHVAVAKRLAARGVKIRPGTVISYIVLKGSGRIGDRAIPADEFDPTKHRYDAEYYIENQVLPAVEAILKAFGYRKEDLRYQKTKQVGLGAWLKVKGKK

[4] = biological target: T4, 9°N-7 YAV C223S exo- R713A (Thermococcus sp. 9°N-7) (UniProt Q56366); details: kobs, DNA:pol 5:1; single exponential, amplitude ~90%
T4 sequence: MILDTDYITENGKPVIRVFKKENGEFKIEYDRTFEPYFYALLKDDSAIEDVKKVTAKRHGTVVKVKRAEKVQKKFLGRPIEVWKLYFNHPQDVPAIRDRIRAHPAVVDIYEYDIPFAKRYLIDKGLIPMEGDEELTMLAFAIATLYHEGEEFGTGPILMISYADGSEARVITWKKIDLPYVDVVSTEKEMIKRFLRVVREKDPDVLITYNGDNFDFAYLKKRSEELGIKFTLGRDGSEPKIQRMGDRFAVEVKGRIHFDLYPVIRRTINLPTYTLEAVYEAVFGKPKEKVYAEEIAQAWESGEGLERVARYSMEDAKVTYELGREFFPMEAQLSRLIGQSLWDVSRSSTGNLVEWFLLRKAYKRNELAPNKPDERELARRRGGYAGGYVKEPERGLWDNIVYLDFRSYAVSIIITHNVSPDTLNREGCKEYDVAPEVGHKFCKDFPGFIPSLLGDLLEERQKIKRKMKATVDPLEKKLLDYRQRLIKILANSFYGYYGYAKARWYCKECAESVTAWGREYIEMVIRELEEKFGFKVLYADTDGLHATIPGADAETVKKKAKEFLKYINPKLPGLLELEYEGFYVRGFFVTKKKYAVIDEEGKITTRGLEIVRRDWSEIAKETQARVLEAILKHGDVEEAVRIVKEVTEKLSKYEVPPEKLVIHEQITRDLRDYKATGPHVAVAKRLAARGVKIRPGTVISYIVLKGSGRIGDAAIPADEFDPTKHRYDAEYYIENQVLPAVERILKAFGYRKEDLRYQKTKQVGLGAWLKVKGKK

[5] = biological target: T5, 9°N-7 YAV C223S exo- R743A (Thermococcus sp. 9°N-7) (UniProt Q56366); details: kobs, DNA:pol 5:1; single exponential, amplitude ~90%
T5 sequence: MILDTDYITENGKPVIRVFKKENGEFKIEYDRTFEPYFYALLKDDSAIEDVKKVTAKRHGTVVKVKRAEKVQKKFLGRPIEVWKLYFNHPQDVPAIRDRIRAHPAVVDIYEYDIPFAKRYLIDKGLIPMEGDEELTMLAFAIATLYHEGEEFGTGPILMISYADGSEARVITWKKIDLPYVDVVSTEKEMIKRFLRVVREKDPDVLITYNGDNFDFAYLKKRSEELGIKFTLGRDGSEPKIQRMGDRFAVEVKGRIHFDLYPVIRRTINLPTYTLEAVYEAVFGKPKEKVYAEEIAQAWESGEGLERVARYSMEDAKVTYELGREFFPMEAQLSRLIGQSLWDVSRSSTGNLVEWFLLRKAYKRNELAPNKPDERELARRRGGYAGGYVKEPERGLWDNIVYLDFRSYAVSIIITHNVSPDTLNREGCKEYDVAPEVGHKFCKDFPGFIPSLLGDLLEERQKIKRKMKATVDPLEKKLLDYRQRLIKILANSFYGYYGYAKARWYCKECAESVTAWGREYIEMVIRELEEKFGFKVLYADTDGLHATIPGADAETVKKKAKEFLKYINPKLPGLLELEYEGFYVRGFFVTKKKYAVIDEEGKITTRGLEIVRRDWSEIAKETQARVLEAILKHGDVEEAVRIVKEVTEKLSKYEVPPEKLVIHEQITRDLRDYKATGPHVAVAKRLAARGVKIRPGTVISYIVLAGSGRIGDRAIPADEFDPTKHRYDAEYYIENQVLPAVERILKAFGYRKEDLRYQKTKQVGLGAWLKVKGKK

[6] = biological target: T3, 9°N-7 YAV C223S exo- K705A; assay: washing assay; similar response to clone 9; details: hairpin with 5' overhang
Experimental: Once washed, each well was incubated with a 20 μl aliquot of 500 nM enzyme (clone 9, K705A, R713A or R743A mutants) at 45° C. for 30 minutes. Post incubation, each well was washed with […] 10 mM Tris pH 8.0, 10 mM EDTA including varying concentrations of NaCl (0, 0.05, 0.1, 0.3, 0.4, 0.75, 1.0, 2.0 M) and then […] MilliQ water. Wells were subsequently pre-equilibrated with enzymology buffer prior to a further incubation of 20 μl of 2 μM ffT-N3-647 at 45° C. for 30 minutes. Wells were washed with 3×100 ml high salt wash buffer (10 mM Tris pH 8.0, 1M NaCl, 10 mM EDTA) and then 3×100 ml MilliQ water. Strips scanned on Typhoon fluorescence imager (y5 filter, PMT=500 V).

## 10 A hairpin DNA
[1]
  relative kobs (% of YAV): 21%
[2]
  activity: 0.06 s⁻¹
[3]
  activity: 0.06 s⁻¹
[4]
  activity: 0.01 s⁻¹
[5]
  activity: 0.004 s⁻¹

B1: A-template hairpin oligo 815 (structured_DNA)
DNA: CGATCACGATCACGATCACGATCACGATCACGATCACGCTGATGTGCATGCTGTTGTTTTTTTACAACAGCATGCACATCAGCG
modifications: 5'-amino, surface coupled
[6]
  binding result: binds

Reference: US20060281109, “Polymerases” (published 2006)
